Laboratory results as given in paper PMC8392704, “Small Hexokinase 1 Peptide against Toxic SOD1 G93A Mitochondrial Accumulation in ALS Rescues the ATP-Related Respiration” (Biomedicines, 2021).
Primed or numbered codes have the meaning given here. Where no end group is shown, it is not given here. FITC′ = not defined here

Biological target: T1, Recombinant 6xHis-tagged human VDAC1 (Voltage-Dependent Anion Channel 1) (human, UniProt P21796 1-283)
T1 construct: Voltage-Dependent Anion selective Channel 1 (VDAC1), human; PDB 6G6U is the cited crystal structure of human VDAC1, used only for docking; also called mitochondrial porin; porin; not shown: His6, C-terminal, kept
T1 sequence (P21796 whole entry): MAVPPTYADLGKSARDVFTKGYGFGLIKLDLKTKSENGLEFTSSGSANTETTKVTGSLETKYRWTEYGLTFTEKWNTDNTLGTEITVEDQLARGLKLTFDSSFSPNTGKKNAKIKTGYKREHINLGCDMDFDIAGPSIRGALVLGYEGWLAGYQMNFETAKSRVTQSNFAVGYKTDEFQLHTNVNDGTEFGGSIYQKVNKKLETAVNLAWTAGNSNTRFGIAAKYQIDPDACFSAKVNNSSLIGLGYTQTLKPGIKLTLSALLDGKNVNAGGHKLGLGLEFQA
Assay: pull-down + SEC; 1 uM C-terminal His-tagged VDAC1 immobilised on Ni2+-Sepharose beads, incubated with 1 uM NHK1-FITC for 24 h; unbound peptide washed off; eluted with 200 mM imidazole; eluate loaded on Superdex200 and the complex detected by FSEC (ex/em 494/518 nm), with the VDAC1 profile at 280 nm
Details: both partners purified

binding result: binds
B1: NHK1-FITC peptide (FITC-labeled NHK1, residues 2-12 of human HK1) (peptide)
peptide: IAAQLLAYYFT-{FITC′}
notes: hexokinase 1 (HK1), human, amino acids 2-12; also called FITC-NHK1; NHKI; source: synthetic peptide, produced by Proteogenix
